Paper PMC6778850, “The flavin mononucleotide cofactor in α-hydroxyacid oxidases exerts its electrophilic/nucleophilic duality in control of the substrate-oxidation level” (Acta Crystallographica. Section D, Structural Biology, 2019)

Target: the molecule itself
Experiment: SEC; analytical gel filtration on a Superdex 200 16/20 column; 5-deaza-FMN-reconstituted protein after the refolding process; self-association (tetramer)

Row | Protein | stoichiometry N
1 | p-hydroxymandelate oxidase (Hmo), 5-deaza-FMN-containing (enzyme, Amycolatopsis orientalis, p-hydroxymandelate oxidase (Hmo), product of the hmo gene (orf22) amplified from Amycolatopsis orientalis genomic DNA, cloned in pET-28a(+); no removal of the His6 tag is described; also called 5-deaza-Hmo; wild-type Hmo; source: E. coli BL21(DE3), purified (Ni-NTA, gel filtration); deflavinated and reconstituted with 5-deaza-FMN on an Ni-NTA column) MTYVSLADLERAARDVLPGEIFDFLAGGSGTEASLVANRTALERVFVIPRMLRDLTDVTTEIDIFGRRAALPMAVAPVAYQRLFHPEGELAVARAARDAGVPYTICTLSSVSLEEIAAVGGRPWFQLYWLRDEKRSLDLVRRAEDAGCEAIVFTVDVPWMGRRLRDMRNGFALPEWVTAANFDAGTAAHRRTQGVSAVADHTAREFAPATWESVEAVRAHTDLPVVLKGILAVEDARRAVDAGAGGIVVSNHGGRQLDGAVPGIEMLGEIVAAVSGGCEVLVDGGIRSGGDVLKATALGASAVLVGRPVMWALAAAGQDGVRQLLELLAEEVRDAMGLAGCESVGAARRLNTKLGVV | 4
2 | p-hydroxymandelate oxidase (Hmo) Y128F mutant, 5-deaza-FMN-containing (enzyme, Amycolatopsis orientalis, p-hydroxymandelate oxidase (Hmo), product of the hmo gene (orf22) of Amycolatopsis orientalis, point mutant Y128F made with QuikChange; no removal of the His6 tag is described; source: E. coli BL21(DE3), purified (same protocol as wild-type Hmo); deflavinated and reconstituted with 5-deaza-FMN on an Ni-NTA column) MTYVSLADLERAARDVLPGEIFDFLAGGSGTEASLVANRTALERVFVIPRMLRDLTDVTTEIDIFGRRAALPMAVAPVAYQRLFHPEGELAVARAARDAGVPYTICTLSSVSLEEIAAVGGRPWFQLFWLRDEKRSLDLVRRAEDAGCEAIVFTVDVPWMGRRLRDMRNGFALPEWVTAANFDAGTAAHRRTQGVSAVADHTAREFAPATWESVEAVRAHTDLPVVLKGILAVEDARRAVDAGAGGIVVSNHGGRQLDGAVPGIEMLGEIVAAVSGGCEVLVDGGIRSGGDVLKATALGASAVLVGRPVMWALAAAGQDGVRQLLELLAEEVRDAMGLAGCESVGAARRLNTKLGVV | 4
